Target: T1, TGF-β2DM:TβRII binary complex (human, UniProt P37173 23-166)
T1 chain 1: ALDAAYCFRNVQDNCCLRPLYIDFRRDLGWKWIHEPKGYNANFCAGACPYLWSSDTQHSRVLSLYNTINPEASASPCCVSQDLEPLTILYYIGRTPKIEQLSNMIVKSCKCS
T1 chain 2: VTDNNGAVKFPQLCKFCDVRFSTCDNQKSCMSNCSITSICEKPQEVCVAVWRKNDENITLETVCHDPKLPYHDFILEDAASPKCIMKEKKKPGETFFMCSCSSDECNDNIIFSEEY
Experiment: SEC-MALS

B1: full-length rat betaglycan ectodomain (domain or fragment, UniProt P26342 24-789, looked up)
chain: GPEPSTRCELSPINASHPVQALMESFTVLSGCASRGTTGLPREVHVLNLRSTDQGPGQRQREVTLHLNPIASVHTHHKPIVFLLNSPQPLVWHLKTERLAAGVPRLFLVSEGSVVQFPSGNFSLTAETEERNFPQENEHLLRWAQKEYGAVTSFTELKIARNIYIKVGEDQVFPPTCNIGKNFLSLNYLAEYLQPKAAEGCVLPSQPHEKEVHIIELITPSSNPYSAFQVDIIVDIRPAQEDPEVVKNLVLILKCKKSVNWVIKSFDVKGNLKVIAPNSIGFGKESERSMTMTKLVRDDIPSTQENLMKWALDNGYRPVTSYTMAPVANRFHLRLENNEEMRDEEVHTIPPELRILLDPDHPPALDNPLFPGEGSPNGGLPFPFPDIPRRGWKEGEDRIPRPKQPIVPSVQLLPDHREPEEVQGGVDIALSVKCDHEKMVVAVDKDSFQTNGYSGMELTLLDPSCKAKMNGTHFVLESPLNGCGTRHRRSTPDGVVYYNSIVVQAPSPGDSSGWPDGYEDLESGDNGFPGDGDEGETAPLSRAGVVVFNCSLRQLRNPSGFQGQLDGNATFNMELYNTDLFLVPSPGVFSVAENEHVYVEVSVTKADQDLGFAIQTCFLSPYSNPDRMSDYTIIENICPKDDSVKFYSSKRVHFPIPHAEVDKKRFSFLFKSVFNTSLLFLHCELTLCSRKKGSLKLPRCVTPDDACTSLDATMIWTMMQNKKTFTKPLAVVLQVDYKENVPSTKDSSPIPPPPPQIFHGLDTLTV
**Q.** For B1, which “stoichiometry N” value is on record?
**A.** Its value is 1 BG_(O-ZP) per TGF-β2DM dimer.
